Reference: patent US20230348573A1 (KEIO UNIVERSITY, published 2023)

Assays:
Test in all cases: cell-based or functional assay
[1] = molecular target: spike protein of SARS-CoV-2 α strain on pseudovirus (SARS-CoV-2 (α strain))
[2] = molecular target: spike protein of SARS-CoV-2 δ strain on pseudovirus (SARS-CoV-2 (δ strain))
[3] = molecular target: spike protein of SARS-CoV-2 B.1.1.482 strain on pseudovirus (SARS-CoV-2 (B.1.1.482 strain))
[4] = molecular target: spike protein of SARS-CoV-2 β strain on pseudovirus (SARS-CoV-2 (β strain))
[5] = molecular target: spike protein of SARS-CoV-2 γ strain on pseudovirus (SARS-CoV-2 (γ strain))

B1: Ab354 (antibody, V domains shown)
VH: QVQLVQSGAEVKKPGASVTVSCKASGFLFTGYYMHWVRQAPGQGLEWMGWINPNSGASNYTRKFQGRVTMTRDTSISATYMKLSRLTSDDTAVYYCARDLAFSMVRGALDYWGQGTLVTVSS
VL: QLVLTQPPSASGSPGQSVTISCTGTSSDVGGYNYVSWYQHHPGKAPKLMIYEVSKRPSGVPDRFSGSKSGNTASLTVSGLQAEDEADYYCNSYAGNNNWVFGTGTKVTVL
- IC50 of pseudovirus infection (luciferase) [1]: 0.0937 µg/mL
- IC50 of pseudovirus infection (luciferase) [2]: 0.0715 µg/mL
- IC50 of pseudovirus infection (luciferase) [3]: 0.277 µg/mL

B2: Ab159 (antibody, V domains shown)
VH: QVQLVESGGGLVKPGGSLRLSCAASGFTFNNAWMSWVRQAPGKGLEWVGRIKSKTDGGTTDYAAPVKGRFTFSRDDSKNTLYLQMSSLKTEDTALYYCTTADYDILTGTPASPYWGQGTLVTVSS
VL: DIQMTQSPSSLSASVGDRVTITCRASQSITNYLNWYQQKPGKAPKFLIYAASSLQGGVPSRFRGSGSGTDFTLTISSLQPEDFATYYCQQTYSTLWTFGQGTKVEIK
- IC50 of pseudovirus infection (luciferase) [1]: 0.0119 µg/mL
- IC50 of pseudovirus infection (luciferase) [4]: 0.00537 µg/mL
- IC50 of pseudovirus infection (luciferase) [5]: 0.00369 µg/mL
- IC50 of pseudovirus infection (luciferase) [2]: 0.13 µg/mL
- IC50 of pseudovirus infection (luciferase) [3]: 0.0233 µg/mL

B3: Ab712 (antibody, V domains shown)
VH: QVQLVQSGSELKKPGASVKISCKASGYTFINHAINWVRQAPGQGLEWMGWINTNTGNPTYAPGFTGRFVFSLDTSVSTAYLQISSLKAEDTAVYYCARIPIRDYDYDGSGYYYFLDYWGQGTLVTVSS
VL: SYELTQDPAVSVALGQTVRITCQGDSLRSSSASWYQQKPGQAPVLVIYGKTNRPSGIPDRFSGSSSGNTASLTITGAQAEDEADYYCNSRDNSGNHPVVFGGGTKLTVL
- IC50 of pseudovirus infection (luciferase) [1]: 0.103 µg/mL
- IC50 of pseudovirus infection (luciferase) [4]: 0.0077 µg/mL
- IC50 of pseudovirus infection (luciferase) [5]: 0.0022 µg/mL
- IC50 of pseudovirus infection (luciferase) [2]: 0.0799 µg/mL
- IC50 of pseudovirus infection (luciferase) [3]: 0.0164 µg/mL

B4: Ab188 (antibody, V domains shown)
VH: EVQLVESGGGLVQPGGSLRLSCAASGFTFINYKMNWVRQAPGKGLEWVSYISSGSDAIYYADSVKGRFTISRDNAKNSLYLQMNSLRDEDTALYYCARGGGYNYGECMDVWGQGTTVTVSS
VL: not shown
- IC50 of pseudovirus infection (luciferase) [1]: 0.248 µg/mL
- IC50 of pseudovirus infection (luciferase) [4]: 0.0179 µg/mL
- IC50 of pseudovirus infection (luciferase) [2]: 0.139 µg/mL
- IC50 of pseudovirus infection (luciferase) [3]: 0.171 µg/mL

B5: Ab765 (antibody, V domains shown)
VH: QVQLVESGGGVVQPGRSLRLSCAASGFTFSDYAIHWVRQAPGRGLEPVALISYDGNNKYYADSVKGRFTISRDNSKNVLYLQMNSLRADDTAVYYCARDAEGGWVAALDYWGQGTLVTVSS
VL: QSALTQPRSVSGSPGQSVTISCTGTSSDVGGYNYVSWYQHHPGKAPKVMIYEVSKRPSGVPDRFSGSKSGTTASLTISGLQAEDEADYYCCSYAGTYPYVFGTGTKVTVL
- IC50 of pseudovirus infection (luciferase) [1]: 0.0166 µg/mL
- IC50 of pseudovirus infection (luciferase) [4]: 0.0045 µg/mL
- IC50 of pseudovirus infection (luciferase) [5]: 0.0144 µg/mL
- IC50 of pseudovirus infection (luciferase) [2]: 0.0269 µg/mL
- IC50 of pseudovirus infection (luciferase) [3]: 0.0117 µg/mL

B6: Ab803 (antibody, V domains shown)
VH: EVQLVESGGGLVQPGRSLRVSCAASGFTFDDYAMHWVRQTPRKGLEWVAGISRNSAAIAYADSVKGRFTISRDNAKNSVFLQMNGLRADDTALYYCVKSPRYGWGSPDYSFDFWGRGTLVTVSS
VL: DIQLTQSPSSLSASVGDRVTITCRASQNIGTYLNWYQQEPGKAPKLLIYAASSLQSGVPSRFSGSGSGTDFTLTISSLQPEDFATYCCQQSFTTPLTFGQGTKVEIK
- IC50 of pseudovirus infection (luciferase) [1]: 0.402 µg/mL
- IC50 of pseudovirus infection (luciferase) [4]: 0.0104 µg/mL
- IC50 of pseudovirus infection (luciferase) [5]: 0.0106 µg/mL
- IC50 of pseudovirus infection (luciferase) [2]: 0.0639 µg/mL
- IC50 of pseudovirus infection (luciferase) [3]: 0.144 µg/mL

B7: Ab830 (antibody, V domains shown)
VH: QVQLVQSGAEVKKPGSSVKVSCKTSGGTFTNYTISWVRQAPGQGLEWMGRIIPIFDIVNYAQKFQGRVTITADKSTSTTYMELSSLRSEDTAVYYCARDGVLYDTSGYLYDAFDIWGQGTMVTVSS
VL: DIQMTQSPSSLSASVGDRVTITCRASQGINNYLAWFQQKPGKAPKSLIYAASSLQSGVPPKFSGSGSGTDFTLTISSLQPEDFATYYCLHYNSYPWTFGQGTKVEIK
- IC50 of pseudovirus infection (luciferase) [1]: 0.0374 µg/mL
- IC50 of pseudovirus infection (luciferase) [4]: 0.0569 µg/mL
- IC50 of pseudovirus infection (luciferase) [5]: 0.0011 µg/mL
- IC50 of pseudovirus infection (luciferase) [2]: 0.0554 µg/mL
- IC50 of pseudovirus infection (luciferase) [3]: 0.0042 µg/mL

B8: Ab496 (antibody, V domains shown)
VH: EVQLVQSGPEVKKPGTSVKVSCKASGFIFTNSAVQWVRQARGQRLEWIGWIVVGSGNPNYAQKFQERVTITRDRSTSTAYMELSSLTSEDTAVYYCAAFPYYYDNSGSGPWGQGTLVTVSS
VL: DIQLTQSPSSLSASVGDRVTITCQASQDIRNNLNWYQQIPGKAPKLLIYDASNLETGVPSRFSGSASGTDFTFTISSLQPEDVATYYCQQYANLPPFTFGPGTKVDIK
- IC50 of pseudovirus infection (luciferase) [1]: 0.0169 µg/mL
- IC50 of pseudovirus infection (luciferase) [2]: 0.00984 µg/mL
- IC50 of pseudovirus infection (luciferase) [3]: 0.0506 µg/mL

B9: Ab864 (antibody, V domains shown)
VH: EVQLVESGGGLVQPGRSLRLSCAASGFTFDDYAMHWVRQVPGKGLEWVSGISWNKGNIDYADSVKGRFTISRDNAKNSLYLQMNSLRPEDTGLYYCAKDCHYDSPGYFPNCLHSWGQGTLVTVSS
VL: EIVMTQSPSSLSASVGDRVTITCRASQGINTYLAWYQQKPGKAPKLLIYTASTLQSGVPSRFSGSGSGTDFTLTISSLQPEDFATYYCQQVHSYPLTFGGGTKVEIK
- IC50 of pseudovirus infection (luciferase) [1]: 0.0098 µg/mL
- IC50 of pseudovirus infection (luciferase) [4]: 0.0044 µg/mL
- IC50 of pseudovirus infection (luciferase) [2]: 0.0172 µg/mL
- IC50 of pseudovirus infection (luciferase) [3]: 0.0234 µg/mL

B10: Ab816 (antibody, V domains shown)
VH: QVQLVQSGAEVKKPGESLMISCKASGYNFRNYWIAWVRQMPGKGLEWMGIIHPGDSDIRYRPSLQGHVTISADKSITTAYLQWGSLKASDTAMYYCTRITTDADSSGLFHYWGQGTLVTVSS
VL: EIVLTQSPSTLSASVGDRVTITCRASQNIYTWLAWYQRKPGKAPKVLIYKASSLESGVPSRFSGSGSGTEFTLTISSLQPDDFATYYCQQYKSAWSFGQGTKVEIK
- IC50 of pseudovirus infection (luciferase) [1]: 0.0175 µg/mL
- IC50 of pseudovirus infection (luciferase) [4]: 0.0095 µg/mL
- IC50 of pseudovirus infection (luciferase) [5]: 0.0018 µg/mL
- IC50 of pseudovirus infection (luciferase) [2]: 0.0239 µg/mL
- IC50 of pseudovirus infection (luciferase) [3]: 0.0396 µg/mL

B11: Ab326 (antibody, V domains shown)
VH: EVQLVESGGGVVQPGRSLRLSCAASGFTFSHYPMHWVRQAPGRGLEWVAVISYDGSNQHYVDSVKGRFTISRDNSKNTLYLQMNSLRAEDTAVYFCASLITMIRGVPDYWGQGTLVTVSS
VL: DIQMTQSPSSLSASVGDRVTITCRASQSISNYLNWYQQKPGKAPNLLIFAASSLQSGVPSRFSGSGSGTEFTLTISSLQPEDFAAYYCLQTYSTPRTFGQGTRLEIK
- IC50 of pseudovirus infection (luciferase) [1]: 0.0493 µg/mL
- IC50 of pseudovirus infection (luciferase) [2]: 0.0184 µg/mL

B12: Ab709TK (antibody, V domains shown)
VH: QVQLVESGGGVVQPGKSLRLSCAASGFTFSSYAMHWVRLAPGKGLEWVAVISPDGKNKYYVDSVKGRSTISRDNSKNTLYLLMNSLRAEDTAVYYCATTQSLWFGQFYYIYGMDVWGQGTTVTVSS
VL: QSVLTQPHSVSESPGKTITISCTGSSGSIASNYVQWYQQRPGSAPTTVIYEDTERPSGVPDRFSGSIDSSSNSASLTISGLKTEDEADYYCQSYDSNNVVFGGGTKLTVL
- IC50 of pseudovirus infection (luciferase) [1]: 0.236 µg/mL
- IC50 of pseudovirus infection (luciferase) [4]: 0.0058 µg/mL
- IC50 of pseudovirus infection (luciferase) [5]: 0.0033 µg/mL
- IC50 of pseudovirus infection (luciferase) [2]: 0.0586 µg/mL
- IC50 of pseudovirus infection (luciferase) [3]: 0.172 µg/mL

B13: Ab847 (antibody, V domains shown)
VH: EVQLVQSGAEVKKPGASVKVSCKASGYTFTSYDIIWVRQATGQGLEWMGWMDPSRGTTGYAQTFQGRVTMTRDTSISTAYLELNSLTSEDTAVYYCVAHIVVLDRWFDPWGQGTLVTVSS
VL: DIVMTQSPSSLSASVGDRVTITCQASQDIGNFLNWCQQKPGQAPKVLIYGASNLETGVPSRFSGSGSGTDFTFTISSLQPEDIATYYCQHYDNFPPRFTFGQGTKLDIK
- IC50 of pseudovirus infection (luciferase) [1]: 0.0821 µg/mL
- IC50 of pseudovirus infection (luciferase) [4]: 0.0103 µg/mL
- IC50 of pseudovirus infection (luciferase) [5]: 0.0502 µg/mL
- IC50 of pseudovirus infection (luciferase) [2]: 0.0422 µg/mL
- IC50 of pseudovirus infection (luciferase) [3]: 0.0548 µg/mL

B14: Ab863 (antibody, V domains shown)
VH: EVQLVQSGAEVKKPGASVKVSCQASGYTFITYYMHWVRQAPGQGLEWMGIINPDGGSISYAQKFQGRVTMTRDTSTSTVYMELSSLRSEDTAVYYCARGLSPTFSSSWFDNWGLGTLVTVSS
VL: DVVMTQSPATLSVSPGERATLSCRASQSVSSNLAWYQQKPGQAPRLLIYGASTRDTGIPARFSGSGSGTEFTLTISSLQSEDFAVYFCQQYKNWLLTFGGGTKVEIK
- IC50 of pseudovirus infection (luciferase) [1]: 0.0301 µg/mL
